Where “and” joins values, the source holds several entries; their conditions need not be identical. Equal values may be shown once. Entries after “also recorded” stand apart in the source; their conditions may differ. Read-outs that look alike come from different tables or passages of the source.
Key:
[1] = CsA encapsulation by two-phase solvent evaporation, RP-HPLC; format: physicochemical; conditions: for CsA loading ratio: FIG. 16; for CsA loading compared with a comparator: in words
Procedure: The mixture was incubated at 37° C. and samples were collected at different time points up to 48 h.
This was followed by high-speed centrifugation and filtration to remove the excess insoluble drug. […] The mobile phase flow rate was set to 1.0 ml/min. The linear gradient from 20% to 95% of methanol was applied from 0 to 5 min. Then the mobile phase was changed to 95% methanol isocratic flow for 10 min.
This was followed by high-speed centrifugation and filtration to remove the excess insoluble drug. The loading ratio was then determined by reversed-phase high-performance liquid chromatography (RP-HPLC) analysis method.
The drug loading capability of 2nd and 3rd generation carriers were also tested using the same encapsulation method detailed above employing the method of Shi, et al., 2013.

[2] = Phase transition temperature by optical density (UV-Vis, 350 nm) versus temperature; format: physicochemical; conditions: for Transition temperature at 25 μM: Table 5; for Transition temperature (Tt): at 25 μM, 1° C./min; for Slope, m: fit Tt = b - m Log10[CELP]; for Intercept, b: intercept at 1 μM
Procedure: The temperature with the maximum positive slope was defined as the phase transition temperature for each condition. (FIG. 2B) The concentration-temperature phase diagram was determined for both ELPs, and fit to the following equation: Tt=b−m Log10[CELP].
Both ELPs at different concentrations (5 μM to 100 μM) were subject to a precisely controlled temperature increase from 25 to 75° C. at a rate of 1° C./min. The Tt of ELPs is defined as the temperature at which the first derivative of the optical density with respect to the temperature reaches a maximum.

[3] = Isothermal titration calorimetry of 5FA/Rapa interaction; format: binding; conditions: ITC
Description: Using Isothermal Titration calorimetry (ITC), the binding stoichiometry of 5FA/Rapa interaction was estimated to be 5. […] An overall negative Gibbs free energy (−10 kJ/mol interactions) indicates FKBP/Rapa binding is thermodynamically favorable.

[4] = cited from earlier work
[5] = target: Pin1 (Homo sapiens, UniProt Q13526); conditions: cited from earlier work
Pin1, sequence (Q13526 whole entry): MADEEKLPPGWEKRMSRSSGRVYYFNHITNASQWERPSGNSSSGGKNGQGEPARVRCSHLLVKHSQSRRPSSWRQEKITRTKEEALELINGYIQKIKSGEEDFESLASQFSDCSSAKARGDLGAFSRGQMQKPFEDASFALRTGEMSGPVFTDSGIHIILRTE

[6] = tested on: IL-2 secretion, Jurkat cells; assay: IL-2 secretion assay in activated Jurkat cells (ELISA); format: cell-based; conditions: Homo sapiens, n=3, mean±SD
Procedure: Upon stimulation, Jurkat cells produce IL-2.
IL-2 concentration in culture media is then assessed using ELISA assay.

[7] = Multivariate fit of the phase diagram of ELP monoblock copolymers; format: physicochemical; conditions: for Tc: critical transition temperature; for n: dependence on inverse of ELP length; for m: dependence on natural logarithm of concentration; for K: interaction term between length and concentration
Description: The Tt of the ELP component can be modified by varying ELP chain length, as the Tt generally increases with decreasing MW. For polypeptides having a molecular weight >100,000, the hydrophobicity scale developed by Urry et al. (PCT/US96/05186, which is hereby incorporated by reference in its entirety) is preferred for predicting the approximate Tt of a specific ELP sequence. However, in some embodiments, ELP component length can be kept relatively small, while maintaining a target Tt, by incorporating a larger fraction of hydrophobic guest residues (e.g., amino acid residues having hydrophobic side chains) in the ELP sequence. For polypeptides having a molecular weight <100,000, the Tt may be predicted or determined by the following function:
[formula] where Tc is a critical transition temperature, m is the dependence on the natural logarithm of concentration, n is the dependence on the inverse of the ELP length l, and k is an interaction term between length and concentration.

[8] = target: human albumin (Homo sapiens, UniProt P02768); assay: Competition of CsA-loaded CA192 against human albumin (1 mM, 37° C.); format: in vitro ADME; conditions: 48 h
Procedure: Per molecule of protein, CA192 (SEQ ID NO: 3) binds 10× more drug than albumin. […] The mixture was incubated at 37° C. and samples were collected at different time points up to 48 h. The ELP phase separation was induced to purify CA192 (SEQ ID NO: 3) from the mixture with Albumin, which was—followed by RP-HPLC analysis. (FIG. 4C) Instead of albumin, lipoproteins in the plasma, mainly high-(HDL) and low-(LDL) density lipoprotein, predominantly bind to cyclosporine in the plasma. Thus, CA192-CsA was also tested against mouse plasma over a period of 48 hr.
Samples were collected from the dialysis cassette at different time points between 0 and 192 h and analyzed by RP-HPLC. […] The same drug release experiment was performed using CA192 dimer obtained via SEC. Dialysis was performed against PBS at 37° C. (FIG. 3B) and 4° C. (FIG. 3C). To further validate the release profile, as a control group, with the same encapsulation method, human albumin was explored to load CsA. […] The mixture was incubated at 37° C. and samples were collected at different time points up to 48 h. Another round of […] was performed to purify CA192 from the mixture, followed by RP-HPLC analysis. […] Similar to this competition method against albumin, 300 μM CA192-CsA in PBS was diluted 1:1 in mouse plasma to achieve a final concentration of 150 μM. […]

[9] = Dynamic light scattering (DLS) hydrodynamic radius and stability; format: physicochemical
Procedure: FIGS. 5A-5D: CA192 (SEQ ID NO: 3) has a good stability in terms of hydrodynamic radius. There are two fractions present in the CA192 (SEQ ID NO: 3) solution: an aggregated form and dimeric form. A dimerized form has similar hydrodynamic radius, Rh as A192. […] Drug-loaded CA192 (SEQ ID NO: 3) has a mean Rh of 64.5±0.5 nm (p<0.05). […] (FIG. 5C) Size Exclusion Chromatography (SEC) was conducted to fractionate CA192 (SEQ ID NO: 3) depending on their particle size. Two fractions were observed. […] In contrast, the fraction 1 contains a mixture of larger aggregates.
The hydrodynamic radius (Rh) of both the loaded and unloaded fusion protein, along with plain A192, was measured via dynamic light scattering (DLS) using a DynaPro Plate Reader II from Wyatt Technology. Before the DLS measurement, solutions were filtered through […] pore size filters. The concentration of each solution was then adjusted to 20 μM. 60 μL from each sample was pipetted into three different wells on the plate reader and covered by 15 μL mineral oil each to avoid solvent evaporation. Centrifugation was then performed to remove air bubbles. […] Based on this DLS method, Applicants performed a stability assay to explore the stability of the fusion protein by measuring the mean Rh shift during incubation at physiological temperature. Briefly, the fusion solution was incubated at 37° C. for different periods of time up to 48 h and the mean Rh of CA192 at these different time points was measured with DLS. […] There might be some slight aggregation occurring in the CA192 protein solution. […] To determine if this was the case, further separation was conducted with size exclusion chromatography (SEC). This process was performed at 4° C. using a Hiload 26/600 column (26×600 mm, particle size 24-44 μM). […] Fragments with absorption above 10 mAu were collected and concentrated with a Spin-X concentrator (pore size 10 kDa). […] (FIG. 5D) Through measuring the CA192 concentration of both fractions, Applicants determined that 20.8% by mass in solution is represented by the multimerized particles. […]

[10] = SEC / Multi-Angle Static Light Scattering (MALS) of CA192 fractions; format: physicochemical
Procedure: The hydrodynamic radius (Rh) of both the loaded and unloaded fusion protein, along with plain A192, was measured via dynamic light scattering (DLS) using a DynaPro Plate Reader II from Wyatt Technology. Before the DLS measurement, solutions were filtered through […] pore size filters. The concentration of each solution was then adjusted to 20 μM. 60 μL from each sample was pipetted into three different wells on the plate reader and covered by 15 μL mineral oil each to avoid solvent evaporation. Centrifugation was then performed to remove air bubbles. […] Based on this DLS method, Applicants performed a stability assay to explore the stability of the fusion protein by measuring the mean Rh shift during incubation at physiological temperature. Briefly, the fusion solution was incubated at 37° C. for different periods of time up to 48 h and the mean Rh of CA192 at these different time points was measured with DLS. […] There might be some slight aggregation occurring in the CA192 protein solution. […] To determine if this was the case, further separation was conducted with size exclusion chromatography (SEC). This process was performed at 4° C. using a Hiload 26/600 column (26×600 mm, particle size 24-44 μM). […] Fragments with absorption above 10 mAu were collected and concentrated with a Spin-X concentrator (pore size 10 kDa). Two fractions were observed after SEC separation (FIG. 5C). […] (FIG. 5D) Through measuring the CA192 concentration of both fractions, Applicants determined that 20.8% by mass in solution is represented by the multimerized particles. Multi-Angle static Light Scattering (MALS) was then applied to evaluate the aggregation and oligomeric state of CA192. […] Thus, it was concluded that the CA192 fusion protein is mostly maintained as dimerized nanoparticles with a 6.5 nm hydrodynamic radius.
To further evaluate the aggregation and oligomeric state of each fraction, Multi-Angle Static Light Scattering (MALS) was then used to measure the molecular weight of both peaks. […] Similarly, fraction 1 was identified as aggregated form. […]

[11] = tested on: HeLa cells; assay: HeLa cell uptake, co-localization with lysosomes (confocal microscopy); format: cell-based; conditions: 30 μM rhodamine-labeled ELP; 120 min; LysoTracker Green
Procedure: Lysosomes were labeled by LysoTracker Green® having the structure:
In order to further validate the potential efficacy of CA192 working as a potent drug binding domain, an in vitro cell uptake study was performed. Briefly, CA192 and A192 was labeled with rhodamine and HeLa cell lysosome with LysoTracker Green (LTG)® having the structure as described herein. For the treatment group, HeLa cells were incubated with 30 μM of rhodamine-labeled (rh)-CA192 and 70 nM of LTG for 120 min. For the control group, HeLa cells were incubated with 30 μM of rhodamine-labeled (rh)-A192 and 70 nM of LTG for 120 min. Cells were then rinsed with warm HBSS three times, maintained in the fresh culture medium, and imaged by confocal microscopy. Images were acquired using a Zeiss laser scanning microscope 510 Meta NLO confocal imaging system equipped with Argon, red HeNe, green HeNe laser, and a Coherent Chameleon Ti-Sapphire laser (LSM) mounted on a vibration-free table (Carl Zeiss, Thornwood, N.Y.). All images were acquired using a Plan-Apochromat 63× Oil immersion lens with a working distance of 0.19 mm.

3(CA)C: 3rd generation carrier CypA-A24-CypA-A24-CypA-A24-CypA, SEQ ID NO: 9
CsA loading ratio [1]: 209.0%

5FA: 5 FKBP domains linked by ELP A24, SEQ ID NO: 10
Transition temperature at 25 μM [2]: 53.2 °C
Gibbs free energy [3]: −10 kJ/mol interactions
TAS [3]: −48 kJ/mol interactions
binding enthalpy [3]: −58 kJ/mol interactions
Kd ([3]; true KD likely lower, beyond limit of detection, read-out: equilibrium dissociation constant (KD)): ≤ 1.5 nM

5FV: 5 FKBP domains linked by ELP V24, SEQ ID NO: 11
Transition temperature at 25 μM [2]: 27.7 °C

CC1=C(/C=C/C(C)=C/C=C/C(C)=C/C(=O)O)C(C)(C)CCC1 [ATRA, All trans retinoic acid]
AUC on 28th day of administration relative to AUC on day 1 ([4]; daily treatment): 10%
half-life ([4]; in vivo): 45 min
affinity to Pin1 [5]: sun-micromolar affinity

C/C=C/C[C@@H](C)[C@@H](O)[C@H]1C(=O)N[C@@H](CC)C(=O)N(C)CC(=O)N(C)[C@@H](CC(C)C)C(=O)N[C@@H](C(C)C)C(=O)N(C)[C@@H](CC(C)C)C(=O)N[C@@H](C)C(=O)N[C@H](C)C(=O)N(C)[C@@H](CC(C)C)C(=O)N(C)[C@@H](CC(C)C)C(=O)N(C)[C@@H](C(C)C)C(=O)N1C [CsA, Cyclosporin A]
IC50 ([6]; PMA and Ionomycin, 6 h, read-out: IC50, IL-2 secretion assay): 0.522 ± 0.152 nM
IC50 ([6]; FIG. 10 legend, read-out: IC50, IL-2 inhibition): 0.522 ± 0.152 nM

(Val-Pro-Gly-Ala-Gly): ELP monoblock library, SEQ ID NO: 61 (VPGAG)
Tc [7]: 40.5 ± 1.6 °C
n [7]: 7009 ± 345 °C pentamers
m [7]: 0 ° C./ln(μM)
K [7]: −850.1 ± 51.5 °C pentamers/ln(μM)

(Val-Pro-Gly-Ile-Gly): ELP monoblock library, SEQ ID NO: 63 (VPGIG)
Tc [7]: 13.0 ± 0.6 °C
n [7]: 760 ± 30 °C pentamers
m [7]: 0 ° C./ln(μM)
K [7]: −81.2 ± 7.9 °C pentamers/ln(μM)

(Val-Pro-Gly-Ser-Gly): ELP monoblock library, SEQ ID NO: 60 (VPGSG)
Tc [7]: 63.6 ± 1.1 °C
m [7]: −1.86 ± 0.31 ° C./ln(μM)
K [7]: 0 °C pentamers/ln(μM)

(Val-Pro-Gly-Val-Gly): ELP monoblock library, SEQ ID NO: 62 (VPGVG)
Tc [7]: 21.2 ± 0.9 °C
n [7]: 1607 ± 90 °C pentamers
m [7]: 0 ° C./ln(μM)
K [7]: −163.1 ± 23.3 °C pentamers/ln(μM)

CA96C: 2nd generation carrier CypA-A96-CypA, SEQ ID NO: 8
CsA loading ratio [1]: 127.5%

CA192: cyclophilin A fused to ELP A192, SEQ ID NO: 3
Transition temperature (Tt) [2]: 45.4 °C
Slope, m ([2]; mean ± 95% CI, Table 2): 1.3 ° C./Log10(μM) and 1.3 ± 0.27 ° C./Log10(μM)
Intercept, b ([2]; mean ± 95% CI, Table 2): 47.1 °C and 47.1 ± 0.39 °C
CsA loading compared with a comparator [1]: significantly more drug than albumin
transfer of CsA from CA192 to albumin [8]: No significant drug loss; also recorded: unable to extract CsA
stability of Rh ([9]; 37° C., up to 48 h): well maintained throughout 48 h; also recorded: no significant hydrodynamic radius shift; also recorded: stability over 2 days
mean hydrodynamic radius (Rh) ([9]; DLS intensity, 20 μM): 64.8±0.7 nm
Mass Fraction, Fraction 1 (Nano-aggregated form) ([10]; MALS): 10.1%
Mass Fraction, Fraction 2 (Dimeric form) ([10]; MALS): 89.9%
multimerized particles in solution ([10]; from CA192 concentration of both SEC fractions): 20.8 % by mass
co-localization with lysosomes [11]: obvious co-localization with lysosome; also recorded: co-localized with lysosomes; also recorded: co-localizing with lysosomes

CV96: cyclophilin A fused to ELP V96, SEQ ID NO: 4
Transition temperature (Tt) [2]: 31.2 °C
Slope, m ([2]; Table 3): 4.4 ° C./Log10(μm)
Intercept, b ([2]; Table 3): 36.8 °C
CsA loading compared with a comparator [1]: higher loading ratio

dimerized CA192: dimeric fraction of CA192 isolated by size exclusion chromatography
Transition temperature (Tt) [2]: 49.3 °C
hydrodynamic radius (Rh) after SEC ([9]; 99.2% by mass of fraction 2): 6.5±0.1 nm
